Positions count from the first letter of the chain named.

B1: Example 1123 (peptide)
chain: YXQGTFTSDXSQXLDKKAQXAFIEXLIEXGPSSGEPPPSGE
modifications: Aib, 4Pal, αMeL, Me4Pal; acylated Lys; C-terminal amide; synthetic construct; SITE 2: note = 2-Aminoisobutyric Acid; SITE 10: note = 3-(4-Pyridyl)-L-alanine; SITE 13: note = alpha-methyl-leucine; SITE 17: note = Lysine is chemically modified through conjugation of the epsilon-amino group of the Lysine side chain with (gamma-Glu)2-CO-(CH2)16-CO2H; SITE 20:
B2: Example 1105 (peptide)
chain: YXQGTFTSDXSQXLDXKAQXAFIEXLIAXGPSSGEPPPSGSEE
modifications: not fully specified; non-natural residues; Lys acylated γGlu-C18 diacid; C-terminal amide; synthetic construct; SITE 2: note = 2-Aminoisobutyric Acid; SITE 10: note = 3-(4-Pyridyl)-L-alanine; SITE 13: note = alpha-methyl-leucine; SITE 16: note = L-ornithine; SITE 17: note = Lysine is chemically modified through conjugation of the epsilon-amino group of the Lysine side chain with D-Glutami
B3: Example 1129 (peptide)
chain: B2 chain with A21Q, E24Q, A28E, S41G, E42G
modifications: non-natural residues; lysine acylated with C18 diacid; C-terminal amide; synthetic construct; SITE 2: note = 2-Aminoisobutyric Acid; SITE 10: note = 3-(4-Pyridyl)-L-alanine; SITE 13: note = alpha-methyl-leucine; SITE 16: note = L-ornithine; SITE 17: note = Lysine is chemically modified through conjugation of the epsilon-amino group of the Lysine side chain with D-Glutami
B4: Example 1125 (peptide)
chain: B2 chain with X16K, A28E
modifications: Aib, 4Pal, Me4Pal, αMeL; lipidated Lys; C-terminal amide; synthetic construct; SITE 2: note = 2-Aminoisobutyric Acid; SITE 10: note = 3-(4-Pyridyl)-L-alanine; SITE 13: note = alpha-methyl-leucine; SITE 17: note = Lysine is chemically modified through conjugation of the epsilon-amino group of the Lysine side chain with (gamma-Glu)2-CO-(CH2)16-CO2H; SITE 20:
B5: Example 1131 (peptide)
chain: B2 chain with E24Q, A28E, S41G, E42G
modifications: not fully specified; non-natural residues, C18 diacid acylation, C-terminal amide; synthetic construct; SITE 2: note = 2-Aminoisobutyric Acid; SITE 10: note = 3-(4-Pyridyl)-L-alanine; SITE 13: note = alpha-methyl-leucine; SITE 16: note = L-ornithine; SITE 17: note = Lysine is chemically modified through conjugation of the epsilon-amino group of the Lysine side chain with D-Glutami
B6: Example 1124 (peptide)
chain: B2 chain with X16K, A28E, S41E
modifications: non-natural residues (Aib, 4Pal, Me4Pal, αMeL); lipidated Lys; C-amide; synthetic construct; SITE 2: note = 2-Aminoisobutyric Acid; SITE 10: note = 3-(4-Pyridyl)-L-alanine; SITE 13: note = alpha-methyl-leucine; SITE 17: note = Lysine is chemically modified through conjugation of the epsilon-amino group of the Lysine side chain with (gamma-Glu)2-CO-(CH2)16-CO2H; SITE 20:
B7: Example 1128 (peptide)
chain: B2 chain with A21Q, E24Q, S41G, E42G
modifications: Aib, 4Pal, αMeL, Orn, Me4Pal, αMeY; acylated lysine; amide; synthetic construct; SITE 2: note = 2-Aminoisobutyric Acid; SITE 10: note = 3-(4-Pyridyl)-L-alanine; SITE 13: note = alpha-methyl-leucine; SITE 16: note = L-ornithine; SITE 17: note = Lysine is chemically modified through conjugation of the epsilon-amino group of the Lysine side chain with D-Glutami
B8: Example 1130 (peptide)
chain: B2 chain with E24Q, S41G, E42G
modifications: Lys acylated γGlu-C18 diacid; non-natural residues; C-amide; synthetic construct; SITE 2: note = 2-Aminoisobutyric Acid; SITE 10: note = 3-(4-Pyridyl)-L-alanine; SITE 13: note = alpha-methyl-leucine; SITE 16: note = L-ornithine; SITE 17: note = Lysine is chemically modified through conjugation of the epsilon-amino group of the Lysine side chain with D-Glutami
B9: Example 1106 (peptide)
chain: B2 chain with A21Q
modifications: not fully specified; Aib, 4Pal, Orn, Me4Pal, αMeY; lipidated Lys; C-terminal amide; synthetic construct; SITE 2: note = 2-Aminoisobutyric Acid; SITE 10: note = 3-(4-Pyridyl)-L-alanine; SITE 13: note = alpha-methyl-leucine; SITE 16: note = L-ornithine; SITE 17: note = Lysine is chemically modified through conjugation of the epsilon-amino group of the Lysine side chain with D-Glutami
B10: Example 106 (peptide)
chain: YXQGTFTSDFSXXLDKKAQXAFIEYLLAGGTSSGEPPPSGE
modifications: synthetic construct; SITE 2: note = 2-Aminoisobutyric Acid; SITE 12: note = L-ornithine; SITE 13: note = alpha-methyl-leucine; SITE 17: note = Lysine is chemically modified through conjugation of the epsilon-amino group of the Lysine side chain with (2-[2-(2-Amino-ethoxy)-ethoxy]-acetyl)-(gamma-Glu)
B11: Example 1143 (peptide)
chain: YXQGTXTSDXXIXLDXKAQXEFIEXLIEGGPSSGEPPPTGE
modifications: Non-natural residues; K acylated AEEA-γGlu-C18 diacid; C-terminal amide; synthetic construct; SITE 2: note = 2-Aminoisobutyric Acid; SITE 6: note = alpha-methyl-2-fluoro-L-phenylalanine; SITE 10: note = 3-(4-Pyridyl)-L-alanine; SITE 11: note = alpha-methyl-L-serine; SITE 13: note = alpha-methyl-leucine; SITE 16: note = L-ornithine; SITE 17: note = Lysine is chemically mo

In one test the target is hGLP-1R (Homo sapiens, UniProt P43220). Kind of test: cell-based or functional assay.
hGLP-1R, sequence (P43220 24-463): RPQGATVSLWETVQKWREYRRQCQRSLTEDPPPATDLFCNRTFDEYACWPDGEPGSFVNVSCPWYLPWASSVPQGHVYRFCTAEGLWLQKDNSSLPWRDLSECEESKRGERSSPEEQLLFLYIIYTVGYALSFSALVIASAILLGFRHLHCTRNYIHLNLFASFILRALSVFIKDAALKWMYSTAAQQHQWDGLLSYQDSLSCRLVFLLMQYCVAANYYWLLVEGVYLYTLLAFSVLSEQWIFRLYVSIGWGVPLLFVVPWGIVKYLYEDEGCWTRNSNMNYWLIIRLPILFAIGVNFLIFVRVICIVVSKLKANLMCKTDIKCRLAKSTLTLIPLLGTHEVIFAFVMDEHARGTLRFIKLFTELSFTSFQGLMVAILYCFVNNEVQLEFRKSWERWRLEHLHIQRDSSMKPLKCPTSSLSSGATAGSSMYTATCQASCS
Molecule B1 had a Relative cAMP EC50 of 4.47 nM and a cAMP Rel EC50 (1% HSA) of 191 nM.
The like results for B2 were, in that order, 0.875 nM and 92.5 nM.
In turn, B3 yielded a Relative cAMP EC50 of 0.501 nM and a cAMP Rel EC50 (1% HSA) of 56.6 nM.
The like results for B4 were, in that order, 8.26 nM and 243 nM.
On to B5, for which the Relative cAMP EC50 amounted to 0.483 nM and the cAMP Rel EC50 (1% HSA) was determined as 63.7 nM.
Take B6: the Relative cAMP EC50 is 10.1 nM and the cAMP Rel EC50 (1% HSA) was found to be 304 nM.
B7: the Relative cAMP EC50 was found to be 0.486 nM and the cAMP Rel EC50 (1% HSA) amounted to 52.8 nM.
The like results for B8 were, in that order, 0.641 nM and 44.5 nM.
For the molecule B9, the Relative cAMP EC50 is 0.87 nM and the cAMP Rel EC50 (1% HSA) is 119 nM.
As for B10, the Relative cAMP EC50 turned out to be 3.94 nM and the cAMP Rel EC50, nM (in the presence of 1% HSA) came out at 977 nM.
The molecule B11 registered a Relative cAMP EC50 of 0.381 nM and a cAMP Rel EC50 (1% HSA) of 49.6 nM.

The target in the next test is T1, human GIP receptor (human) (UniProt P48546).
T1 sequence (looked up): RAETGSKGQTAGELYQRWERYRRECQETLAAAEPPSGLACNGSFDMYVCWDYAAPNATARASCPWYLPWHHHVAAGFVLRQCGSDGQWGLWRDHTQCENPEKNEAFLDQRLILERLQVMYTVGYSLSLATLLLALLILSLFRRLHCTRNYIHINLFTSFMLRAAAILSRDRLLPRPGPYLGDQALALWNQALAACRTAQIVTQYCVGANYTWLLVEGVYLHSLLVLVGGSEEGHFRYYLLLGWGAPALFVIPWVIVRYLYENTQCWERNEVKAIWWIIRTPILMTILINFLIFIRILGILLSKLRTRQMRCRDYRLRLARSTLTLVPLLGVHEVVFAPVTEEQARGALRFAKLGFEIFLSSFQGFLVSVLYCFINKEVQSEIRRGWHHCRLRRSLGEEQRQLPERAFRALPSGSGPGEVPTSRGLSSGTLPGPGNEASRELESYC
The test can be described thus: cell-based or functional assay.
As for B1, the Relative cAMP EC50 was found to be 0.101 nM and the cAMP Rel EC50 (1% HSA) amounted to 3.89 nM.
B2 showed a Relative cAMP EC50 of 0.0427 nM and a cAMP Rel EC50 (1% HSA) of 5.59 nM.
The like results for B3 were, in that order, 0.048 nM and 4.16 nM.
The like results for B4 were, in that order, 0.173 nM and 3.95 nM.
As for B5, the Relative cAMP EC50 came to 0.0472 nM and the cAMP Rel EC50 (1% HSA) turned out to be 5.47 nM.
Take B6: the Relative cAMP EC50 came out at 0.187 nM and the cAMP Rel EC50 (1% HSA) worked out at 12 nM.
The like results for B7 were, in that order, 0.0378 nM and 3.18 nM.
Molecule B8 showed a Relative cAMP EC50 of 0.0441 nM and a cAMP Rel EC50 (1% HSA) of 3.73 nM.
With B9, the Relative cAMP EC50 is 0.0312 nM and the cAMP Rel EC50 (1% HSA) was found to be 4.23 nM.
B10: the Relative cAMP EC50 came to 0.345 nM and the cAMP Rel EC50, nM (in the presence of 1% HSA) came out at 91 nM.
As to B11, the Relative cAMP EC50 was 0.0087 nM and the cAMP Rel EC50 (1% HSA) came out at 0.751 nM.

The target of the next test is human glucagon receptor (human) (UniProt P47871). The test can be described thus: cell-based or functional assay.
human glucagon receptor (human), sequence (P47871 26-477): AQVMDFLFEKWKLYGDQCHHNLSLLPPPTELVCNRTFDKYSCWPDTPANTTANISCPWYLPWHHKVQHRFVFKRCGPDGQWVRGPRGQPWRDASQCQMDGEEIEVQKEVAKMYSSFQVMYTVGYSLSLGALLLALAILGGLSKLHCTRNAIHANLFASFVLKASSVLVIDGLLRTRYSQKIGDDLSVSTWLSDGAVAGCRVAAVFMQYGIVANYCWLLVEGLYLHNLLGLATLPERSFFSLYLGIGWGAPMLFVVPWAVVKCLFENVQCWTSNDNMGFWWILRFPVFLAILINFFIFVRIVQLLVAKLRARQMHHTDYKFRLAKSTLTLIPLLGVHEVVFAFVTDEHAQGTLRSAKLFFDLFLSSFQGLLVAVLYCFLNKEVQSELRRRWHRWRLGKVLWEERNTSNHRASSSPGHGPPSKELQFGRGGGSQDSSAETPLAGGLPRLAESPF
B1 gave a Relative cAMP EC50 of 5.53 nM and a cAMP Rel EC50 (1% HSA) of 441 nM.
Taken in the same sequence, the figures for B2 were 10.7 nM and 1260 nM.
Taken in the same sequence, the figures for B3 were 6.11 nM and 796 nM.
Taken in the same sequence, the figures for B4 were 5.83 nM and 264 nM.
Molecule B5 had a Relative cAMP EC50 of 8.42 nM and a cAMP Rel EC50 (1% HSA) of 1140 nM.
As to B6, the Relative cAMP EC50 is 6.97 nM and the cAMP Rel EC50 (1% HSA) is 400 nM.
In turn, B7 returned a Relative cAMP EC50 of 9.88 nM and a cAMP Rel EC50 (1% HSA) of 869 nM.
Take B8: the Relative cAMP EC50 was found to be 13.3 nM and the cAMP Rel EC50 (1% HSA) stood at 1240 nM.
Molecule B9 displayed a Relative cAMP EC50 of 7.71 nM and a cAMP Rel EC50 (1% HSA) of 1030 nM.
For the molecule B10, the Relative cAMP EC50 was 6.26 nM and the cAMP Rel EC50, nM (in the presence of 1% HSA) turned out to be 2000 nM.
In turn, B11 came in with a Relative cAMP EC50 of 1.42 nM and a cAMP Rel EC50 (1% HSA) of 182 nM.

For the origin of these results see patent publication US20240270821A1, “GIP/GLP1/GCG TRI-RECEPTOR AGONISTS AND USES THEREOF” (priority 2023, published 2024).
